Here are results for one molecule from publication doi:10.1101/2021.07.08.451649 (bioRxiv, 2021).

The target in this assay is Recombinant SARS-CoV-2 spike N-terminal domain (NTD) (SARS-CoV-2, ancestral (Wuhan-Hu-1), UniProt P0DTC2). The assay is described as follows: BLI. A general note: In BLI a coated tip is dipped into the sample, and binding shifts an interference pattern.

B1: PVI.V6-14 monoclonal antibody (IgG) (antibody, V domains shown)
VH: QVQLQESGPGLVKPSETLSLTCTVSGGSISSSSYYWGWIRQPPGKGLEWIGSIYYSGSTYYNPSLKSRVTISVDTSKNQFSLKLSSVTAADTAVYYCARCRPEYYFGSGSYLDFDY
VL: DIQMTQSPSSVSASVGDRVTITCRASQGISSWLAWYQQKPGKAPKLLIYAASSLQSGVPSRFSGSGSGTDFTLTISSLQPEDFATYYCQQANSFPLTFGGGTKVEIK
On to B1, for which the binding result is “binds”.
